According to patent publication US7638334B2, “Method for generating engineered cells by homologously recombining segments having increased degeneracy” (Morphotek, Inc., priority 2002, dated 2009):

Test system: endogenous MMR activity
Assay: pCAR-OF β-galactosidase reporter assay for MMR deficiency (in situ X-gal staining)
Format: cell-based, human
Settings: PMS134 expressed from pEF vector in HEK293 cells
Excerpt: A method used to detect MMR deficiency in eukaryotic cells is to employ a reporter gene that has a polynucleotide repeat inserted within the coding region that disrupts its reading frame due to a frame shift. In the case where MMR is defective, the reporter gene will acquire random mutations (i.e. insertions and/or deletions) within the polynucleotide repeat yielding clones that contain a functional reporter gene. An example of the ability to alter desired genes via defective MMR comes from experiments using HEK293 cells (described above), where a mammalian expression construct containing a defective β-galactosidase gene (referred to as pCAR-OF) was transfected into 293PMS134 or 293vec cells as described above. The pCAR-OF vector consists of a β-galactosidase gene containing a 29-basepair poly-CA tract inserted at the 5′ end of its coding region, which causes the wild-type reading frame to shift out-of-frame. […] Another reporter vector called pCAR-IF contains a β-galactosidase in which a 27-bp poly-CA repeat was cloned into the same site as the pCAR-OF gene, but it is biologically active because the removal of a single repeat restores the open reading frame and produces a functional chimeric β-galactosidase polypeptide (not shown). […] Cells were scored positive if the colonies turned blue in the presence of X-gal substrate and scored negative if colonies remained white. […]

- dominant negative effect on MMR: robust dominant negative effect
B1: PMS134: previously published dominant negative human PMS2 mismatch repair mutant (SEQ ID NO:11/12) (protein, listed as Homo sapiens)
chain: RGGSGVASMERAESSSTEPAKAIKPIDRKSVHQICSGQVVLSLSTAVKELVENSLDAGATNIDLKLKDYGVDLIEVSDNGCGVEEENFEGLTLKHHTSKIQEFADLTQVETFGFRGEALSSLCALSDVTISTCHASAKVGT
